Measured values: patent US11447754B2, “In vitro methods of chemical conversion using non-stereospecific glutathione lyases” (WISCONSIN ALUMNI RESEARCH FOUNDATION, priority 2017, dated 2022)

Key:
[1] = substrate: COc1cc(C(=O)[C@@H](CO)Oc2ccccc2OC)ccc1O; experiment: Kinetics of the enzymatic cleavage of β(R)-MPHPV by BaeA; format: biochemical, Novosphingobium aromaticivorans; settings: other: β(R)-MPHPV into GS-HPV, 18 nM dimeric enzyme, 5 mM GSH, pH 8.0, 25° C.
Description: (§1) Expression and purification of recombinant enzymes. Recombinant proteins were expressed using the plasmids described above in E. coli B834 containing plasmid pRARE2 (Novagen) grown for ˜25 hours at 25° C. in ZYM-5052 Autoinduction Medium containing kanamycin and chloramphenicol. Recombinant proteins were purified using a Ni^2+-NTA column as described in Example 1 above, except using gravity-flow columns instead of an FPLC system. After removal of His8-tags using Tev protease, recombinant proteins retained a Ser-Ala-Ile-Ala-Gly-peptide on their N-termini, derived from the linker between the protein and the Tev protease recognition site. Recombinant LigF1 was purified as previously described (Gall and Ralph et al. 2014).
Kinetics of the enzymatic cleavage of β(R)-MPHPV. Various concentrations of racemic MPHPV (equal amounts of the β(S)- and β(R)-stereoisomers) were combined with 5 mM GSH in RB. At time zero, 100 μL of a given enzyme in RB+5 mM GSH was combined with 1000 μL of the racemic MPHPV/GSH sample at 25° C. (both samples were equilibrated to 25° C. before mixing). Final concentrations of β(R)-MPHPV in each reaction were 0.0045, 0.010, 0.017, 0.068, or 0.13 mM. Final enzyme concentrations were 18 nM BaeA, 23 nM BaeA (2:S14A), 22 nM BaeA (3:S15A), 24 nM BaeA (2:S14A/3:S15A), 98 nM BaeA (3N14A), or 70 nM LigE (Saro_2405) (all concentrations are for the dimeric enzyme, except for LigE, which is the concentration of the monomer). At specified time points, 200 μL of a reaction was removed and combined with 40 μL of 1 M HCl (Acros Organics) to stop the reaction before HPLC analysis to quantify GS-HPV formed. […]
(§2) HPLC analysis. Analysis and quantification of aromatic compounds were performed using an Ultra AQ C18 5 μm column (Restek) attached to a System Gold HPLC (Beckman Coulter) with running buffers and methods described in Example 1. The eluent was analyzed for light absorbance between 191 and 600 nm, and absorbances at 280 nm were used for quantification of aromatic metabolites by comparing peak areas to those of standards.

[2] = Kinetics of the enzymatic cleavage of β(R)-MPHPV into GS-HPV; format: biochemical
Description: Kinetics of the enzymatic cleavage of β(R)-MPHPV. Various concentrations of racemic MPHPV (equal amounts of the β(S)- and β(R)-stereoisomers) were combined with 5 mM GSH in RB. At time zero, 100 μL of a given enzyme in RB+5 mM GSH was combined with 1000 μL of the racemic MPHPV/GSH sample at 25° C. (both samples were equilibrated to 25° C. before mixing). Final concentrations of β(R)-MPHPV in each reaction were 0.0045, 0.010, 0.017, 0.068, or 0.13 mM. Final enzyme concentrations were 18 nM BaeA, 23 nM BaeA (2:S14A), 22 nM BaeA (3:S15A), 24 nM BaeA (2:S14A/3:S15A), 98 nM BaeA (3N14A), or 70 nM LigE (Saro_2405) (all concentrations are for the dimeric enzyme, except for LigE, which is the concentration of the monomer). At specified time points, 200 μL of a reaction was removed and combined with 40 μL of 1 M HCl (Acros Organics) to stop the reaction before HPLC analysis to quantify GS-HPV formed. Control experiments were allowed to proceed for several hours to ensure that only the β(R)-MPHPV in the reaction mixtures was being reacted with in these experiments.
as §2

[3] = substrate: COc1cc(C(=O)[C@@H](CO)Oc2ccccc2OC)ccc1O; experiment: Kinetics of the enzymatic cleavage of β(R)-MPHPV by BaeA (2:S14A); format: biochemical, Novosphingobium aromaticivorans; settings: other: β(R)-MPHPV into GS-HPV, 23 nM dimeric enzyme, 5 mM GSH, pH 8.0, 25° C.
Excerpt: (§3) To generate mutant 2:S14A, pVP302K/2873-H2872 was amplified by kinase phosphorylated primers “Saro2872-S14A_R” and “Saro2872-S14A_F”. To generate mutant 3:S15A, pVP302K/H2873-2872 was amplified by kinase phosphorylated primers “Saro2873-S15A_R” and “Saro2873-S15A_F”. To generate mutant 3:N14A, pVP302K/2873-H2872 was amplified by kinase phosphorylated primers “Saro2873-S15A_R” and “Saro2873-N14A_F”. These linear fragments were separately circularized using T4 DNA ligase to generate plasmids pVP302K/2873-H2872(S14A), pVP302K/H2873(S15A)-2872, and pVP302K/2873(N14A)-H2872, respectively.
as §1
(§4) Kinetics of the enzymatic cleavage of β(R)-MPHPV. Various concentrations of racemic MPHPV (equal amounts of the β(S)- and β(R)-stereoisomers) were combined with 5 mM GSH in RB. […] At specified time points, 200 μL of a reaction was removed and combined with 40 μL of 1 M HCl (Acros Organics) to stop the reaction before HPLC analysis to quantify GS-HPV formed. […]
as §2

[4] = substrate: COc1cc(C(=O)[C@@H](CO)Oc2ccccc2OC)ccc1O; experiment: Kinetics of the enzymatic cleavage of β(R)-MPHPV by BaeA (3:S15A); format: biochemical, Novosphingobium aromaticivorans; settings: other: β(R)-MPHPV into GS-HPV, 22 nM dimeric enzyme, 5 mM GSH, pH 8.0, 25° C.
Excerpt: as §3, §1, §4, §2

[5] = substrate: COc1cc(C(=O)[C@@H](CO)Oc2ccccc2OC)ccc1O; experiment: Kinetics of the enzymatic cleavage of β(R)-MPHPV by LigE; format: biochemical, Novosphingobium aromaticivorans; settings: other: β(R)-MPHPV into GS-HPV, 70 nM enzyme (monomer), 5 mM GSH, pH 8.0, 25° C.
Excerpt: Enzyme purifications. Genes Saro_2595, E. coli yghU, E. coli yfcG, and SLG_04120 from Sphingobium sp. SYK-6 (codon-optimized for expression in E. coli) were individually cloned into plasmid pVP302K (Gall and Ralph et al. 2014) so that transcripts from the plasmids would be translated into proteins containing a His8-tag connected to the N-terminus via a tobacco etch virus (TEV) protease recognition site. Recombinant proteins were expressed in E. coli B834 (Wood 1966, Doherty et al. 1995) containing plasmid pRARE2 (Novagen, Madison, Wis.) grown for ˜24 h at 27° C. in ZYM-5052 Autoinduction Medium (Studier 2005) containing kanamycin and chloramphenicol. Recombinant proteins were purified essentially as described previously (Gall and Kim et al. 2014); see below for modifications to the procedure. After removal of His8-tags using TEV protease, recombinant proteins retained a Ser-Ala-Ile-Ala-Gly-peptide on their N-termini, derived from the linker between the protein and the TEV protease recognition site. Recombinant LigE and LigF1 from N. aromaticivorans were purified as previously described (Gall and Ralph et al. 2014).
as §4, with “RB. At time zero, 100 μL of a given enzyme in RB+5 mM GSH was combined with 1000 μL of the racemic MPHPV/GSH sample at 25° C. (both samples were equilibrated to 25° C. before mixing).” for “RB.”
as §2

B1: Novosphingobium aromaticivorans BaeA, wild type, heterodimer of Saro_2872 (SEQ ID NO:40) and Saro_2873 (SEQ ID NO:42) (Novosphingobium aromaticivorans DSM … (protein)
chain 1: MSALLYHGEPNGASLTVLAALAETGLDIECRRIDLLAGERHSLPGIVDPVALDLSIEGEGPVLVIDGEAMTESVFLAQYLDEAAGGVGLQPTDAYARWEMMMWCRQITERLSPAAALLGNLATSQSAIAAIPAEDFAILAARIVSDDLRERWQALNDDAVNAAQVADSETKVAAAVDRCEKQLGDGREWLMGTFSIADLVTYSWLAGMEPLRPAAFADAPLVKAWLARTAARPCVQAALARATISEPLRAWAPGPEINRWG
chain 2: MDEVSLYHWEPNANSGKPMLALMEKGVPFSSHYIDMLQFDQHKPEYLAINPQGTIPAMTHNGQVLTESTAIMEYVNDRFDGPDLMPADAQDRWRVRWWMKFMDQWLGPSFSMIGWSVFVGPMVRQRDPAELAAAIDRIPLPERRTAWRKAINGDFSESEMAESRRRVGLGIAKLEEELGKRPYVGSNQYSLADINIFNSTYSLPISQPDLAGKDRTPNIMRWLKRVYTREAVKKTWAMGKTDLAHRYGLIMAEIEG
notes: His8 tag removed by TEV, SAIAG left on the N-terminus
Which Km [1] does the source give for B1 here?
Its Km is 20 ± 3 µM.

What about the kcat [1] of the same molecule?
Its kcat is 2.9 ± 0.3 s⁻¹.

And the kcat/Km [1]?
The kcat/Km was 150000 ± 30000 M⁻¹ s⁻¹.

B2: Saro_2872: polypeptide from Novosphingobium aromaticivorans, SEQ ID NO:40; subunit of BaeA (protein)
chain: MSALLYHGEPNGASLTVLAALAETGLDIECRRIDLLAGERHSLPGIVDPVALDLSIEGEGPVLVIDGEAMTESVFLAQYLDEAAGGVGLQPTDAYARWEMMMWCRQITERLSPAAALLGNLATSQSAIAAIPAEDFAILAARIVSDDLRERWQALNDDAVNAAQVADSETKVAAAVDRCEKQLGDGREWLMGTFSIADLVTYSWLAGMEPLRPAAFADAPLVKAWLARTAARPCVQAALARATISEPLRAWAPGPEINRWG
modifications: Novosphingobium aromaticivorans
notes: subunit of BaeA
Which “activity of the Saro_2872 subunit in BaeA relative to the Saro_2873 subunit” value ([2]; inferred from the 3:N14A variant) does the source give for B2 here?
Its value is less than 5%.

B3: BaeA (3:N14A): BaeA variant with Asn14 of Saro_2873 mutated into Ala (protein)
chain: MDEVSLYHWEPNAASGKPMLALMEKGVPFSSHYIDMLQFDQHKPEYLAINPQGTIPAMTHNGQVLTESTAIMEYVNDRFDGPDLMPADAQDRWRVRWWMKFMDQWLGPSFSMIGWSVFVGPMVRQRDPAELAAAIDRIPLPERRTAWRKAINGDFSESEMAESRRRVGLGIAKLEEELGKRPYVGSNQYSLADINIFNSTYSLPISQPDLAGKDRTPNIMRWLKRVYTREAVKKTWAMGKTDLAHRYGLIMAEIEG
What does the source list for B3?
KM, fold higher than wild-type BaeA ([2]; β(R)-MPHPV): ~12.5 fold; kcat, fold lower than (wild-type) BaeA ([2]; β(R)-MPHPV): ~20 fold

B4: Novosphingobium aromaticivorans BaeA (Saro_2872/Saro_2873 heterodimer, SEQ ID NO:40/SEQ ID NO:42) variant 2:S14A (Ser14 of Saro_2872 to Ala) (Novosphingobium … (protein)
chain 1: MSALLYHGEPNGAALTVLAALAETGLDIECRRIDLLAGERHSLPGIVDPVALDLSIEGEGPVLVIDGEAMTESVFLAQYLDEAAGGVGLQPTDAYARWEMMMWCRQITERLSPAAALLGNLATSQSAIAAIPAEDFAILAARIVSDDLRERWQALNDDAVNAAQVADSETKVAAAVDRCEKQLGDGREWLMGTFSIADLVTYSWLAGMEPLRPAAFADAPLVKAWLARTAARPCVQAALARATISEPLRAWAPGPEINRWG
chain 2: MDEVSLYHWEPNANSGKPMLALMEKGVPFSSHYIDMLQFDQHKPEYLAINPQGTIPAMTHNGQVLTESTAIMEYVNDRFDGPDLMPADAQDRWRVRWWMKFMDQWLGPSFSMIGWSVFVGPMVRQRDPAELAAAIDRIPLPERRTAWRKAINGDFSESEMAESRRRVGLGIAKLEEELGKRPYVGSNQYSLADINIFNSTYSLPISQPDLAGKDRTPNIMRWLKRVYTREAVKKTWAMGKTDLAHRYGLIMAEIEG
notes: His8 tag on Saro_2872 removed by TEV, SAIAG left on N-terminus
For B4, which Km [3] is on record?
The Km was 22 ± 3 µM.

What about the kcat [3] of the same molecule?
The kcat was 2.8 ± 0.2 s⁻¹.

And the kcat/Km [3]?
Its kcat/Km is 130000 ± 20000 M⁻¹ s⁻¹.

B5: Novosphingobium aromaticivorans BaeA (Saro_2872/Saro_2873 heterodimer, SEQ ID NO:40/SEQ ID NO:42) variant 3:S15A (Ser15 of Saro_2873 to Ala) (Novosphingobium … (protein)
chain 1: MSALLYHGEPNGASLTVLAALAETGLDIECRRIDLLAGERHSLPGIVDPVALDLSIEGEGPVLVIDGEAMTESVFLAQYLDEAAGGVGLQPTDAYARWEMMMWCRQITERLSPAAALLGNLATSQSAIAAIPAEDFAILAARIVSDDLRERWQALNDDAVNAAQVADSETKVAAAVDRCEKQLGDGREWLMGTFSIADLVTYSWLAGMEPLRPAAFADAPLVKAWLARTAARPCVQAALARATISEPLRAWAPGPEINRWG
chain 2: MDEVSLYHWEPNANAGKPMLALMEKGVPFSSHYIDMLQFDQHKPEYLAINPQGTIPAMTHNGQVLTESTAIMEYVNDRFDGPDLMPADAQDRWRVRWWMKFMDQWLGPSFSMIGWSVFVGPMVRQRDPAELAAAIDRIPLPERRTAWRKAINGDFSESEMAESRRRVGLGIAKLEEELGKRPYVGSNQYSLADINIFNSTYSLPISQPDLAGKDRTPNIMRWLKRVYTREAVKKTWAMGKTDLAHRYGLIMAEIEG
notes: His8 tag on Saro_2873 removed by TEV
Which Km [4] does the source give for B5 here?
Its Km is 100 ± 20 µM.

What about the kcat [4] of the same molecule?
Its kcat is 2.4 ± 0.3 s⁻¹.

And the kcat/Km [4]?
The kcat/Km was 23000 ± 6000 M⁻¹ s⁻¹.

B6: Novosphingobium aromaticivorans LigE (Saro_2405), wild type (Novosphingobium aromaticivorans DSM 12444) (protein)
chain: MAANNTITFYDLALSTGATISPFVWATKYALKHKGFDLDVVPGGFTGILERTGGKTERLPAIVDDGEFVLDSWGIVEYLDAKYPDRPVLIPHESVAATLKALDNWFWNAAVGPWMFCFCQDYRDLSLPQDHEYVTHSREKMLGRKLEEVQAGREERLPKISAALEPLRAALAQHQWLGGSSPNYADYRIMGGILFTASVCKTPVLANDDPLRDWIERCLDLYGGLGRHPGLFPLFGLEQREGDPDLFNRAAGQGGIYKRNTGPESTRAETQRITEGMKK
notes: E. coli expressed
For B6, which Km [5] is on record?
Its Km is 7 ± 1 µM.

And the kcat [5]?
The kcat was 0.68 ± 0.06 s⁻¹.

What about the kcat/Km [5] of the same molecule?
Its kcat/Km is 100000 ± 20000 M⁻¹ s⁻¹.
